{"source": "patent US20220323607A1", "about": "“SYNTHETIC NANOCARRIERS COMPRISING AN IMMUNOSUPPRESSANT IN COMBINATION WITH HIGH AFFINITY IL-2 RECEPTOR AGONISTS TO ENHANCE IMMUNE TOLERANCE” (Selecta Biosciences, Inc., priority 2021, published 2022)", "molecules": {"B1": {"name": "ovalbumin (protein, UniProt P01012 2-386, looked up)", "Ovalbumin": "GSIGAASMEFCFDVFKELKVHHANENIFYCPIAIMSALAMVYLGAKDSTRTQINKVVRFDKLPGFGDSIEAQCGTSVNVHSSLRDILNQITKPNDVYSFSLASRLYAEERYPILPEYLQCVKELYRGGLEPINFQTAADQARELINSWVESQTNGIIRNVLQPSSVDSQTAMVLVNAIVFKGLWEKAFKDEDTQAMPFRVTEQESKPVQMMYQIGLFRVASMASEKMKILELPFASGTMSMLVLLPDEVSGLEQLESIINFEKLTEWTSSNVMEERKIKVYLPRMKMEEKYNLTSVLMAMGITDVFSSSANLSGISSAESLKISQAVHAAHAEINEAGREVVGSAEAGVDAASVSEEFRADHPFLFCIKHIATNAVLFFGRCVSP"}}, "test_system": "Ovalbumin-specific OTII T cells", "assay": "Adoptive transfer of ovalbumin-specific OTII T cells, Foxp3 expression (Example 5)", "assay_type": "in vivo", "details": "mice with adoptively transferred OTII T cells; starting from ~3%", "method": "However, expansion of antigen-specific Treg can be more desirable than expansion of total Treg. The ability of ImmTOR plus antigen combined with IL-2 mutein to induce and/or expand antigen-specific Treg was evaluated. Ovalbumin-specific OTII T cells were adoptively transferred into mice prior to treatment with ovalbumin and ImmTOR and/or IL-2 mutein.", "data": [{"molecule": "B1", "values": [{"measurement": "percentage of Foxp3+ OTII cells", "result": "~6", "unit": "%"}]}]}
